Test results reported in the nanobody polyreactivity screen of Harvey et al. (2022).

Assay: yeast display, Sf9 membrane polyspecificity reagent, FACS + sequencing; frameworks hold sequencing errors
Procedure, shortened: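 Polyreactivity labels are assigned by the sorting gate from which each nanobody was recovered. The gates were low and high (top ~1%), set on anti-HA fluorescence for expression and streptavidin fluorescence for reagent binding. Before sorting, galactose-induced (36–48 hours) yeast display cells were stained for 1 hour at 4 °C with 10% biotinylated, detergent-solubilized Sf9 membrane reagent.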

Sequence	polyreactivity (PSR sort gate)
QVQLVESGGGVVQAGVTLRLSCAASGRIFHYNAMGWYRQAPGKEREMVAAFTWIGGSTYADSVKGRFTISRDNSKNSVYLLMNSLKPEDTAVYYFNARYIYRFDFWGQGTQVTVSS	low polyreactivity
QVQLVESGGGLVQAGGSLRLSCAASGFIFAYYAMGRYRQAPGKEREFVAVINWSGGITYYADSVKGRFTISRDNAKNTVYLQMNSLKPEDTAVYYCAADELAGYDYWGQGTQVTVSS	low polyreactivity
QVQLVESGGGLVQAGGSLRLSCAASGGIFRWYVMGWYRPEPGKERDFVAAISQSGGSTYYADSVKGRFTISRDNAKNTVYLQMNCLKPEDTAVYYCAAGFYHYRSFNFDYWGQGTQVTVSS	high polyreactivity
QVQLVESGGGLVQAGGSLRLSCAASGSIFLDNAMGWYRQAPGKERELVAAISRRGGTTYYADSVKGRFTISRDNAKNTVYLQMNSLKPEDTAVYYCAARYPGGKYYSYTYNYWGQGTQVTVSS	high polyreactivity
QVQLVESGGGLVQAGGILRLSCAASGSNFGYYVMGWYRQAPGKERELVAGISTGGSTYYADSVKGRFTISRDNAKNTVYLQMNSLKPEDTAVYYCAADYTLSYWGFVYWGQGTQVTVSS	low polyreactivity
QVQLVESGGGLVQAGGSLRLSCAASGRIFGGYAMGWYRQAPGKERELVAAISSGGNTKYADSVKGRFTISRDNAKNTVYLQMNSLKPEDTAVYYCAAKFAQPYYRYDYWGQGTQVTVSS	high polyreactivity
QVQLVESWGGLVQAGGSLRLSCAASGLIIYTYAMGWYRQAPGKERELVADINRSDGSTYYADSVKGRFTISRDNAKNTVYLQMNSLKPEDTAVYYCAVVGPYYSRFGGRYYYWGQGTQVTVSS	low polyreactivity
QVQLVESGGGLVQAGGSLRLTCAASGSIYGVYAMGWSIQGPGKEREWVAVISWNGGRTYYADSVKGRFTISRDNAKNTVYLQMNSLKPEDTAVYYCAADTSYRYRDYHVDYWGQGTQVTVSS	high polyreactivity
QVQLVESGGGLVQAGGSLRLSCAASGRIFPFYDMGWYRQAPGKERELVAAISTSGGSTYYADSVKGRFTISRDNAKNTVYLQMNSLKPEDTAVYYCNAQRALRSTYDSWGQGTQVTVSS	low polyreactivity
QVHLVESGGGLVQAGGSRRLSCAASGFTLSYYAMGWYRQAPGKERELVATISRVGTTYADSVKGRFTISRDNAKNTVYLQMNSLKPEDTAVYYCAVRSRWPYYFTRGVREGDYWGQGTQVTVSS	high polyreactivity
QVQLVESGGGLVQAGGSLRLSCAASGSIFTEYVMGWYRQAPGKERELVAAAITRGGSTNYADSVKGRFTISRDNAKNSVYLQMYCLKPEDTAVYYCNKDVWPVSRQLYTGKYDSWGQGTQVTVSS	low polyreactivity
QVQLVESGGGLVQAGGSLRLSCAASGRIFRNYAMGWYRQAPGKERELVAAISTRSGSTYYADSVKGRFTISRDNAKNTVYLQMNSLKPEDTAVYYCNKVSVGRYYALYYWGQGTKVTVSS	high polyreactivity
QVQLVESGGGLVQAGGSLRLSCAASGGIFYSNGMGWYRQAPGKERELVAAITGGDITDYADSVKGRFTISRDNAKNTVYLQMNSLKPEDTAVYFCAVESYPPDYGPRFGSWGQGTQVTVSS	low polyreactivity
QVQLVESGGGLVQAGGSLRLSCAASGSIFKKYAMGWYRQAPGKERELVAAISSTGGSTKYADSVKGRFTISRDNAKNTVYLQMNSLKPEDTAVYYCNAPGLRDYDAEYDYWGQGTQVTVSS	high polyreactivity
QVQLVESGGGLVQAGGSLRLSCAASGSTFDYNAMGWYRQAPGKERELVAAITTIGGSTYYADSVKGRFTISRDNAKNTVYLQMNSLKPEDTAVYYCAADLRVWGRSGYDYWGQGTQVTVSS	low polyreactivity
QVQLVESGGGLVQAGGSLRLSCAASGRTFYAYAMGWYRQAPGKERELVAAIRISGTSTYYADSVKGRFTISRDNAKNTVYLQMNSLKPEDTAVYYCARYVKLSGYGFYYWGQGTQVTVSS	high polyreactivity
QVQQVESGGGLVQAGGSLRLSWAASGRIFVINGMGWYRQAPGKERELVAGISSGGTTYADSVKGRFTISRDNAKNTVYLQMNSLKPEDTEVYYCAARGRYQPQFDYWGQGTQVTVSS	high polyreactivity
QVQLVESGGGLVQAGGSLRLSCAASGITFSAYAMGWYRQAPGKERELVARISTDADTYYADSVKGRFTISRDNAKNTVYLQMNSLKPEDTAVYYCNADWSWYNYYDFDYWGQGTQVTVSS	low polyreactivity
QVQLVESGGGLVQAGGSLRLSCAASGNTFGNYAMGWYRQAPGKERELVAAITTIGGSTYYADSVKGRFTISRDNAKNTVYLQMNRLKPEDTAVYYCAKVENRYPVGKYDYWGQGTQVTVSS	low polyreactivity
QVQLVESGGGLVQAGGSLRLSCAASGSTFEYNAMGWYRQAPGKERELVASSTNYADSVKGRFTISRDNAKNTVYLQMNSLKPEDTAVYYFAREQGVNRNHDYWGQGTQVTVSS	low polyreactivity
QVQLVESGGGLVQAGGSLRLSCAASGSTFYTNAMGWYTQAPGKERELVAAISGSGGSTYYADSVKGRFTISRDNAKNTVYLQMNSLKPEDTAVYYCAARSRYYDTRFDYWGQGTQVTVSS	low polyreactivity
QVQLVETGGGLVQAGGSLRLSCAAYGSIFIGYAMGWYRQAPGKERELVAAISNSGGRTYYADSVKGRFTISRDNAKNTVYLQMNSLKPEDTEVYYCNVDYRIPYRMDYWGQGTQVTVSS	high polyreactivity

Sequence	polyreactivity (PSR sort gate)
QFQLVESGGGLVQAGGSLRISCAASGRIFYRYAMGWYRPAPGKERELVASIRFSVGSTYYADSVKGRFTISRDNAKNTVYLQMNSLKPEDTAVYYCAADYTKYYRRYYYWGQGTQVTVSS	high polyreactivity
QVQLVESGGGLVQAGGSLRLSCAASGSTFWPYTMGWYSQAPGKERELVAAISLSGGSTYYADSVKGRFTISRDIAKNTVYLQMNSLKPEDTAVYYCAAEGGYQNWHYLYDYWGQGTQVTVSS	low polyreactivity
QVQLVESGGGLVQAGGSLRLSCAPSGRIFYPYAMGWYRQAPGKERELVAAISSRGDSTYYADSVKGRFTISRDNAKNTVYLQMNSLKPEDSAVYYCAAVYGSFPTRLYYWGQGTQVTVSS	high polyreactivity
QVQLVESGGVLVQAGGSLRLSCPASGRTFTYNAMGWYRQAPGKERELVAVITNSGGSTYYADSVKGRFTISRDNPKNTVYLQMNSLKPEDTAVYYCAADYFYRYWYRFYYWGQGTQVTVSS	high polyreactivity
QVQLVESGGGLVQAGGSLSLSCAASGINFWRYAMGWYRPAPGKERELVAGITSRGGSTYYADSVKGRFTISRDNAKNTVYLQMNSLKPEDTAVYYCNADWYGQLWWGVDYWGQGTQVTVSS	high polyreactivity
QVQLVESGGGLVQAGGSLRLSCAASGSTFLNYVMGWYRQAPGKERELVATINSGDSTTYADSVKGRFTISRDNAKNTVYLQMNSLKPEDTAVYYCNADPYYYSTYWSVKYDYWGQGTQVTVSS	low polyreactivity
QVQLVESGGGLVQAGGSLRLRCAASGFIFSAYAMGWYSQAPGKERELVAGITKSVGRTTYADSVKGRFTIARDNAKNTVYLQMNSLKPEDTAVYYCNARRSYTYRIFGMDYWGQGTQVTVSS	high polyreactivity
QVQLVESGGGLVQAGGSLRLSCAASGYTFYRNAMGWYRQAPGKERELVAAIRDDGSTYYADSVKGRFTISRDNAKNTVYLQMNSLKPEDTAVYYCAAAIPRQYWFGISHRRYYYWGQGTQVTVSS	low polyreactivity
QVQLVESGGGLVQAGGSLRLSCAASGSTYYNAMGWSRQAPGNERELVAAIRFRSGSTYYADSVKGRFTISRDNAKNTVYLQMNSLTPEDTAVYYCAADNKRSWRYAYNYWGQGTQVTVSS	high polyreactivity
QVQLVESGGGLVQAGGSLRLSCAASGRTFTRNAMGWYRQAPGKERELVAAISAGGTRTYYADSVKGRFTISRDNAKNTVYLQMNSLIPEDTAVYYCAKPIAPAPNAYPAYDYWGQGTQVTVSS	high polyreactivity
QVQHVESGGGLVQAGGSLRLSCAASFYVYAMGWYRQAPGKERELVAAITYSGGGTYYADSVKGRFTISRDNAKKTVYLQMYSLKPEDTAVYYCNARATAYGWRGYAGFEFDYWGQGTQVTVSS	low polyreactivity
QVQLVESGGGLVQAGGSLRLSCAASGSTVDRYAMGGYRQAPGKERELVAAITSSGGSTYDADSVKGRFTISRDNAKNTVYVQMNSLKPEDTAVYYCNALITYSTDYWGQGTQVTVSS	low polyreactivity
HVQLVESGGGLVQAGGSLRLSCAASGRIFASYPMGWYRPAPGNERELVAAISLSGGSTYYADSVKGRFTISRDNAKNTVYLQMNSLKPEDTAVYYCAAKNYRRYRDYYWGQGTQVTVSS	high polyreactivity
QVQLVESGGGLVQAGGSLRLSCAASGIIFASYPMGWYRQAPGKESELVADINVTGGTTYYADTVKGRFTISRDNAKNTVYLQMNSLKPEDTAVYYCAARQSIFYSWTGVEYYYWGQGTQVTVSS	low polyreactivity
QVQLVESGGGLVQAGGSLRLSCAASGLTFSKYVMGWYRQAPGKERELVAAITWSGGRTYYADSVKGRFTISRDNAKNTVYLLMNSLKPEDTAVYYCNRKLKGLGYEYDYWGQGTQVTVSS	high polyreactivity
QVQLVESGGGLVQAGGSLRLSCASSGSIFWQNTMGWYRQAPGKERELVATITSAGSTYYADSVKGRFTISRDNAKNTVYLQMNSLKPEDTAVYYCAKGHQPGHVFHPEYGYDYWGQGTQVTVSS	low polyreactivity
QVQLVESGGGLVQAGGSLRLSCSASGSIFSYYTMGWYRQAPGKERELVAAITGSGGRTYYADSVKGRFTISRDNAKNTVYLQMNSLKPEDTAVYYCNADRHYVPYYSRPRYIPYDYWGQGTQVTVSS	high polyreactivity
QVQLVESGGGLVQAGGSLRLSCAASGSTFALYAMGWYRQAPGKERELVAAITRGDRTYYADSVKGRFTISRDNAKNTVYLQMNSLKAEDSAVYYCAAGYFGLWVRYDYWGQGSQVTVSS	low polyreactivity
QVQLVESGGGLVQAGGSLRLSCAASGSTFVWYAMGWYRQAPGKEREFVAAITSDGGSTYYADSVKGRFTISRDNAKNTVYLQLNSLKPEDTAVYYCAADYYSLASGWYYYWGQGTQVTVSS	high polyreactivity
QVQLVESGGGLVQAGGSLRLSCAASGSTFSIYAMGWYRQAPGKERELVAAISSSGGSTYYADSVKGRFTISRDNAKNTFYLQMNSLKPEDTAVYYCNKRKYHVRYDYWGQGTQVTVSS	low polyreactivity
QVQLVESGGGLVQAGGSLRLSCAASGFIFSYNAMGWYRQAPGKERELVAAISSIGSGTYYADSVKGRFTISRDNAKNTVYLQMNSLKPEDTAVYYCAKYLRPRIGSRYYYWGQGTQVTVSS	high polyreactivity
